B1: HDV Ribozyme (parent)
chain: GGCCGGCAUGGUCCCAGCCUCCUCGCUGGCGCCGGCUGGGCAACAUUCCGAGGGGACCGUCCCCUCGGUAAUGGCGAAUGGGACCCA

The variants in the data set derive from B1. Briefly: self-cleavage, relative activity (ratio to wild type); higher = more cleavage; co-transcriptional.
On to C24A G25A, for which the self-cleavage came to 0.102.
G25A U65A: the self-cleavage was determined as 0.122.
As for C4G C86A, the figure is 0.554.
As for A43G G59C, the figure is 0.637; as for A8C C13U, 0.356.
As to A51G C84U, the self-cleavage worked out at 0.975.
As for U20C, the figure is 0.129.
As for G5A C66G, the figure is 0.244; as for C36U U65A, 0.665.
Consider G40C C58A, for which the self-cleavage was found to be 0.151.
As for A56C U69C, the figure is 1.09.
In the case of A56C U69G it was 0.987; in that of U9C G59U, 1.17; in that of C26U A56C, 1.12.
As for C24U C36A, the figure is 0.0256; as for A56C G59A, 1.05; as for G38C G55A, 0.124.
With G5C U69G, the self-cleavage was 0.111.
As for G35C U65C, the figure is 0.219; as for C32A C75U, 0.0791; as for G25U A83G, 0.0978.
In the case of U20G G53C it was 0.262; in that of C24U G34C, 0.135; in that of C7U C66G, 0.974.
In the case of C30A C86G it was 0.475.
Turning to U79C G81C, the self-cleavage worked out at 0.189.
On to U23A C84G, for which the self-cleavage stood at 0.601.
For the variant G55U G76A, the self-cleavage worked out at 1.17.
In the case of C18A A87C it was 0.134; in that of C32U G73C, 0.261; in that of U27C C86U, 0.745.
As for U37A A42G, the figure is 0.0665; as for U20C C85U, 0.0475; as for C33A C64A, 0.339.
On to C4A C18A, for which the self-cleavage was determined as 0.0277.
In the case of G68C A78U it was 0.35.
Take C63G U72C: the self-cleavage came to 0.344.
In the case of C62A A78C it was 0.101.
G1U A70G: the self-cleavage came out at 0.536.
In the case of C49A G76U it was 1.01; in that of U23G U72A, 0.341; in that of G2A C24U, 0.101.
For the variant C15A C66A, the self-cleavage is 0.684.
As for G34A C75G, the figure is 0.203; as for C61U, 1.01.
With C3G C84G, the self-cleavage came to 0.41.
In the case of G53U U72G it was 0.554; in that of G55A C84G, 0.635.
In the case of C13G A42C it was 0.
Consider C44U G74C, for which the self-cleavage came out at 0.233.
For U20A A71C, the self-cleavage was 0.0554.
Regarding A77U G80U, the self-cleavage came out at 0.161.
Regarding G2U G74C, the self-cleavage is 0.
In the case of C13A C62A it was 0.158; in that of G67C G81U, 0.157.
In the case of G34U G50C it was 0.0906; in that of C18A A56C, 0.0573; in that of U37G A45G, 0.0692.
In the case of C30G G82U it was 0.0627; in that of G10C C32U, 0.855; in that of G10C C32A, 0.185.
Consider C26G G29U, for which the self-cleavage was determined as 0.119.
Regarding U79C A83C, the self-cleavage came to 0.374.
As for G52A G80A, the figure is 0.386; as for G5A G29A, 0.155.
In the case of U20A G76U it was 0.
In the case of A43C A51U it was 0.324; in that of U12A U72G, 0.185; in that of C15G C18U, 0.0852.
On to G25C, for which the self-cleavage worked out at 0.0909.
Take C14A C85G: the self-cleavage worked out at 0.906.
Consider A16G A45G, for which the self-cleavage amounted to 0.772.
As for G1C U9G, the figure is 0.104; as for A56C A77U, 0.437; as for C7A A78C, 0.0554.
As for C24G G38C, the figure is 0.0791; as for U46G A51G, 0.739; as for C3G G34U, 0.323.
Consider C26A A83G, for which the self-cleavage worked out at 0.729.
G2U G67U: the self-cleavage came out at 0.0563.
As for C57A G59A, the figure is 1.04; as for G40A C63U, 0.895; as for C7G G80C, 0.
In the case of U9A A78C, the self-cleavage was determined as 0.359.
Consider C36A A78U, for which the self-cleavage turned out to be 0.
As for C44U C86U, the self-cleavage came out at 0.886.
As to C44G C86G, the self-cleavage is 0.499.
With C18U C86U, the self-cleavage worked out at 0.886.
As to G17U G68U, the self-cleavage was 0.611.
Take G28U U79A: the self-cleavage came out at 0.0978.
For C18A C63U, the self-cleavage is 0.145.
Consider A56G U72G, for which the self-cleavage turned out to be 0.677.
In the case of G53U G55C, the self-cleavage is 1.01.
As for C18A U79G, the figure is 0.0639; as for G1A C21U, 0.121.
For the variant C7U C64U, the self-cleavage stood at 0.68.
In the case of C32G C66A it was 0.113; in that of U23G G38A, 0.0923.
Consider G29U C58G, for which the self-cleavage was found to be 0.0755.
G5C C85A: the self-cleavage was 0.199.
For the variant C7U C18U, the self-cleavage stood at 0.277.
As for G11U A78C, the figure is 0.02.
In the case of G10C G50U it was 0.956.
As for A16G G50U, the figure is 1.02.
Consider C14U G73A, for which the self-cleavage came to 0.831.
As to C36A A42U, the self-cleavage was 0.122.
As for A8C C44G, the figure is 0.401.
As to G5C C30G, the self-cleavage came to 0.0875.
On to G5C C30A, for which the self-cleavage amounted to 0.
For the variant C44G C57G, the self-cleavage came to 0.458.
In the case of C19A G54A it was 0.0536.
As for G5A U72G, the figure is 0.147.
Turning to C19G C64G, the self-cleavage is 0.113.
As for G31A G55U, the figure is 0.347; as for C14U U65C, 0.997.
On to C19G C57U, for which the self-cleavage was 0.0528.
As for G74A A77C, the figure is 0.231.
In the case of C14U U60A it was 1.23; in that of G40A C58A, 0.906; in that of A70C G81A, 0.453.
With G10C A42C, the self-cleavage turned out to be 0.142.
C64A A78U: the self-cleavage worked out at 0.285.
As to G1A G5C, the self-cleavage was 0.
On to C19G G55U, for which the self-cleavage was found to be 0.04.
With U27G A78C, the self-cleavage came to 0.499.
In the case of U9G A51G it was 0.95; in that of C26G C30A, 0.623.
Take G10U G82A: the self-cleavage was 0.241.
On to C18A A45U, for which the self-cleavage is 0.172.
As for G6C G11U, the figure is 0.
In the case of A16U G38C it was 0; in that of C3A G82C, 0.056.
In the case of U12A A77C it was 0.0755; in that of U12A A77U, 0; in that of G38A C66G, 0.109.
C4G U60G: the self-cleavage came to 0.213.
Consider C44G U47C, for which the self-cleavage amounted to 0.554.
For the variant C14U G35U, the self-cleavage was found to be 0.288.
As for G2U C75G, the self-cleavage is 0.0256.
As for U12G G53A, the figure is 0.88.
In the case of U23G C30A it was 0.145; in that of C44G A70G, 0.525.
For C24U U69G, the self-cleavage worked out at 0.764.
Take U12G U65G: the self-cleavage was found to be 0.962.
Consider G2C G29U, for which the self-cleavage was found to be 0.0494.
Consider C4A G68A, for which the self-cleavage stood at 0.196.
With U46C C84G, the self-cleavage came to 0.237.
Consider G29U A71C, for which the self-cleavage worked out at 0.0302.
As for C57A C61U, the figure is 1.14; as for U9G U47C, 1.04; as for G1C A51G, 0.396.
As for A56U C62A, the figure is 1.05; as for G29U G39U, 0.111; as for G34A G35U, 0.113.
As for G6U A78U, the figure is 0.107; as for G6A G40A, 0.505; as for U9C G68U, 0.655.
Consider G55A G67C, for which the self-cleavage amounted to 0.942.
In the case of G29A G76C it was 0.256.
As for U9G G53C, the figure is 0.939; as for C63G U65C, 0.151; as for A71G A83G, 1.09.
In the case of G6U C14U it was 0.682; in that of A8C A43G, 0.151.
On to G6C C24G, for which the self-cleavage came out at 0.151.
As for G54A U72A, the figure is 0.707.
Turning to G6U C19U, the self-cleavage worked out at 0.0489.
